Measured values as given in patent US20130058911.

Test system: metmyoglobin

Substance: recombinant malate dehydrogenase (MDH) of Bacillus natto with C-terminal 6x His-tag
- metmyoglobin reduction activity (change in A406 with NADH): the activity of MDH was not found

Substance: recombinant putative NAD(P)H nitroreductase (yodC) of Bacillus natto with C-terminal 6x His-tag
- metmyoglobin reduction activity (change in A406 with NADH): the activity of yodC was confirmed
